Laboratory results as given in patent US20170022281A1 (AbbVie / Abbott, published 2017).
Where a chain is given by its changes, count along the chain named.

How the values were obtained:
[1] = target: T1, mouse PRLR on Baf3-mPRLR cells (mouse, UniProt Q08501 20-608); assay: cell-based or functional assay
T1 sequence (looked up): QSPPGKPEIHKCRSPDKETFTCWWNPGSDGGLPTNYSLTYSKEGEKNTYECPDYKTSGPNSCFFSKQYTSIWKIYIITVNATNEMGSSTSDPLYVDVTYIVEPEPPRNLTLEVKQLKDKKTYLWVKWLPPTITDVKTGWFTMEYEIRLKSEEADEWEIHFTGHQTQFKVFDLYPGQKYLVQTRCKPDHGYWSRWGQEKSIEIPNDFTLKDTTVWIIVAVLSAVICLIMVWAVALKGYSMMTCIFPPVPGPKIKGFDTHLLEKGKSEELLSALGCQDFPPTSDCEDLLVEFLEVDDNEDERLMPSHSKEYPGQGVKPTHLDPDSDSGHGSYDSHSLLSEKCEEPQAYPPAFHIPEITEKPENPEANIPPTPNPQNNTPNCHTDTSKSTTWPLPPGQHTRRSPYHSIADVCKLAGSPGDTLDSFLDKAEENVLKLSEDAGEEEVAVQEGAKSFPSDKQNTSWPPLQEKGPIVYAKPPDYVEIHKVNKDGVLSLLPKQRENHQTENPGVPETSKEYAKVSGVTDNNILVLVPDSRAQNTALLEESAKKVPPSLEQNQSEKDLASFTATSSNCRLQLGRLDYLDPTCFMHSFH

[2] = target: T2, murine PRLR (Biacore antigen) (murine, UniProt Q08501 20-229, limits assumed); assay: SPR Biacore
T2 construct: also called muPRLR
T2 sequence (looked up): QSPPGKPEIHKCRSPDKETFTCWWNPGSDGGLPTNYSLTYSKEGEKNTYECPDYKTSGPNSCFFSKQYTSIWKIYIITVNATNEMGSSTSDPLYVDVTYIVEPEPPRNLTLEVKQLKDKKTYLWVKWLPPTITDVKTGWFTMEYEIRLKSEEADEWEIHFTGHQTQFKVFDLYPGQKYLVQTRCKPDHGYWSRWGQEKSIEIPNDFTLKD
Procedure, shortened: (§1)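 Association rate, dissociation rate and dissociation constant were measured by surface plasmon resonance on a Biacore instrument. PRLR antigen was tested at 600 nM, 66.67 nM and 7.41 nM, a 3-point, 9-fold dilution series. Constants came from a 1:1 binding model fit (local Rmax, mass-transport term included) in Biacore T200 Evaluation Software.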

[3] = target: T3, cyno PRLR (Biacore antigen) (cyno, UniProt A0A2K5WXK1 25-234); assay: SPR Biacore
T3 construct: also called cyPRLR
T3 sequence: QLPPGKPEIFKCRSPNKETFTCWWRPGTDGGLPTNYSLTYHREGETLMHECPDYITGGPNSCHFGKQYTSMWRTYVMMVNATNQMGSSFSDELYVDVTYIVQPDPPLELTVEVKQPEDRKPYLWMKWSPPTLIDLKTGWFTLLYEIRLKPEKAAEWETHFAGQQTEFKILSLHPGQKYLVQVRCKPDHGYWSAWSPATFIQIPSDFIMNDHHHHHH
Procedure, shortened: as §1

[4] = target: T4, human PRLR (Biacore antigen) (human, UniProt P16471 25-234, limits assumed); assay: SPR Biacore
T4 construct: The construct injected over captured antibody is not described (a soluble form is likely); also called huPRLR
T4 sequence: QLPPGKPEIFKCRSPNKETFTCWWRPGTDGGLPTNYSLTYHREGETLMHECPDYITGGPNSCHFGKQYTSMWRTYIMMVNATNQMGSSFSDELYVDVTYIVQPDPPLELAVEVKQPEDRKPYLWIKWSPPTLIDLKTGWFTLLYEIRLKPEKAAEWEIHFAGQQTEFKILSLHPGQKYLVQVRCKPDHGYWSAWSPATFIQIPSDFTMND
Procedure, shortened: as §1

[5] = target: T4, human PRLR (Biacore antigen); assay: SPR simultaneous binding; PRLR held by surface mAb Ab21
Procedure: (§2) Running buffer was HBS-EP+ (10 mM Hepes, pH7.4, 150 mM NaCl, 3 mM EDTA, 0.05% surfactant). Assay was performed at 12° C. using Biacore T200 and CM5 sensor chips with anti-human IgG (Pierce) amine-coupled in all 4 flow cells to ˜2000 RU.
(§3) Separate test mAbs were captured in flowcells 2, 3 & 4 (flowcell 1 was reference, no test mAb). All 4 flowcells were then blocked by injection with isotype control mAb at 50 ug/ml. All 4 flowcells were then injected with antigen or buffer only (buffer only is for double referencing, done for each mAb pair individually). All 4 flowcells were then injected with 2nd test mAb at 10 ug/ml. All 4 flowcells were then regenerated with glycine, pH1.5.

[6] = target: T4, human PRLR (Biacore antigen); assay: SPR simultaneous binding; PRLR held by surface mAb Ab30
Procedure: as §2, §3

[7] = target: T4, human PRLR (Biacore antigen); assay: SPR simultaneous binding; PRLR held by surface mAb chAb6
Procedure: as §2, §3

[8] = target: T4, human PRLR (Biacore antigen); assay: SPR simultaneous binding; PRLR held by surface mAb Ab19
Procedure: as §2, §3

[9] = target: T4, human PRLR (Biacore antigen); assay: SPR simultaneous binding; PRLR held by surface mAb Ab39
Procedure: as §2, §3

B1: Ab5 (antibody, V domains shown)
VH: QVQLQQPGAELVRPGTSVKLSCKASGYTFTSFWMHWVKQRPGQGLEWIGVIDPSDTYTNYNQKFKGKATLTVDTSSSTAYMQLSSLTSEDSAVYYCARGDYSNWFTYWGQGTLVTVSA
VL: DVVMTQTPLSLPVSLGDQASISCRSSQRLVHSNGNTYLHWYLQKPGQSPKLLIYKVSNRFSGVPDRFSGSGSGTDFTLKISRVEAEDLGVYFCSQSTHVPWTFGGGTKLEIK
notes: murine monoclonal, isotype G2a; also called murine Ab5
Baf3-mPRLR proliferation IC50 [1]: 1.03 µg/mL | Kd [2]: 14.4 nM | koff [2]: 0.00291 s⁻¹ | kon [2]: 202000 M⁻¹ s⁻¹ | Kd [3]: 0.7 nM | koff [3]: 0.000235 s⁻¹ | kon [3]: 336000 M⁻¹ s⁻¹ | Kd [4]: 0.572 nM | koff [4]: 0.000203 s⁻¹ | kon [4]: 355000 M⁻¹ s⁻¹

B2: Ab7 (antibody, V domains shown)
VH: QVQLQQPGAELVMPGTSVKLSCKASGYTFTSYWIHWVKQRPGQGLEWIGEIDPSDSYTNYNQKFKGKATLTVDRSSSTAYMQLSSLTSEDSAVYYCGRSFFTNWFAYWGQGTLVTVSA
VL: B1 VL with R28S, S81N, W101F, G105S
notes: murine monoclonal, isotype G1; also called murine Ab7
Baf3-mPRLR proliferation IC50 [1]: 3.55 µg/mL | Kd [2]: 41.7 nM | koff [2]: 0.0035 s⁻¹ | kon [2]: 84000 M⁻¹ s⁻¹ | Kd [3]: 0.127 nM | koff [3]: 3.29e-05 s⁻¹ | kon [3]: 259000 M⁻¹ s⁻¹ | Kd [4]: 0.153 nM | koff [4]: 4.27e-05 s⁻¹ | kon [4]: 280000 M⁻¹ s⁻¹

B3: Ab11 (antibody, V domains shown)
VH: EVKLVESGGGLVQPGGSLKLSCAASGFTFSDYYMFWVRQTPEKSLEWVAYISNGGGSTYYPDTVKGRFTISRDNAKNTLYLQMSRLKSEDTAMYYCSRQLFYYGSRGAMGYWGQGTSVTVSS
VL: B1 VL with V3L, R28S, L29I, H39E, F92Y, S94F, S96G, T97S, W101F, G105S
notes: murine monoclonal, isotype G1; also called murine Ab11
Baf3-mPRLR proliferation IC50 [1]: 18.5 µg/mL | Kd [4]: 69.2 nM | koff [4]: 0.0211 s⁻¹ | kon [4]: 305000 M⁻¹ s⁻¹

B4: Ab13 (antibody, V domains shown)
VH: B1 VH with T56S, Y57H, D73N, Q82H
VL: B1 VL with L9F, R28S, G89E, V90L
notes: murine monoclonal, isotype G2a; also called murine Ab13
Baf3-mPRLR proliferation IC50 [1]: 4.69 µg/mL | Kd [4]: 0.997 nM | koff [4]: 0.000431 s⁻¹ | kon [4]: 433000 M⁻¹ s⁻¹

B5: Ab12 (antibody, V domains shown)
VH: DVQLQESGPGLVKPSQSLSLTCTVTGYSITSDYAWNWIRQFPGNKLEWMGYIGYSGRTSFNPSLKSRISITRDTSKNQFFLQLNSVTTEDTATYYCARGGFAMDYWGQGTSVTVSS
VL: QIVLTQSPGIMSASPGEKVTMTCSASSSVTYMYWYQQKPRSSPKPWIYLTSNLASGVPARFSGSGSGTSYSLTISSMEAEDGATYYCQQWSSTPPLTFGGGTKLELN
notes: murine monoclonal, isotype G2a; reported as PRLR agonist; also called murine Ab12
Baf3-mPRLR proliferation IC50 [1]: > 30 µg/mL | Kd [4]: 6.6 nM | koff [4]: 0.00186 s⁻¹ | kon [4]: 282000 M⁻¹ s⁻¹

B6: Ab30 (antibody, human IgG1, kappa, V domains shown)
VH: EVQLVQSGAEVKKPGSSVKVSCKASGYTFTSFWMHWVRQAPGQGLEWIGVIDPSDTYTNYNQKFKGRATLTVDESSSTAYMELSSLRSEDTAVYYCARGDYSNWFTYWGQGTLVTVSS
VL: DVVMTQTPLSLSVTPGQPASISCRSSQRLVHSNGNTYLHWYLQKPGQSPQLLIYKVSNRFSGVPDRFSGSGSGTDFTLKISRVEAEDVGVYFCSQSTHVPWTFGGGTKVEIKR
notes: humanized from Ab5; G1; also called Ab2 HC.1a and Ab2 LC.1a
solution mAb binding, % of PRLR binding [5]: -1% | solution mAb binding, % of PRLR binding [6]: -1% | Kd [2]: 40 nM | koff [2]: 0.0056 s⁻¹ | kon [2]: 140000 M⁻¹ s⁻¹ | Kd [3]: 1.59 nM | koff [3]: 0.000523 s⁻¹ | kon [3]: 330000 M⁻¹ s⁻¹ | Kd [4]: 1.29 nM | koff [4]: 0.000437 s⁻¹ | kon [4]: 339000 M⁻¹ s⁻¹ | solution mAb binding, % of PRLR binding [7]: -1% | solution mAb binding, % of PRLR binding [8]: -1% | solution mAb binding, % of PRLR binding [9]: -2%

B7: Ab10 (antibody, V domains shown)
VH: EVQLHQSGPELVKPGASVKISCKASGYTFTDYNMHWMKQSHGKSLEWIGYFYPYNGGTGYNQEFKNKATLTVDISSSTAYMELRRLTSEDSAVYYCARGGWGIYYAMDYWGQGTSVTVSS
VL: DIQMTQSPASLSASVGETVTITCRASENIYSYLTWYQQKQGKSPQLLVYNAKTLAEGVPSRFSGSGSGTQFSLKINSLQPEDFGSYHCQHHSVTPLTFGAGTKLELK
notes: murine monoclonal, isotype G2a; also called murine Ab10
Baf3-mPRLR proliferation IC50 [1]: > 30 µg/mL | Kd [4]: 1.41 nM | koff [4]: 0.000228 s⁻¹ | kon [4]: 161000 M⁻¹ s⁻¹

B8: Ab6 (antibody, V domains shown)
VH: QVQLQQPGAELVMPGSSVKLSCKASGYTFTTYWMHWVKQRPGQGLEWIGEIDPSDSYSNYNQKFKDKATLTVDKSSSTAYMQLSSLTSEDSAVYYCARNGGLGPAWFSYWGQGTLVTVSA
VL: DIVMTQSQKFMSTTVGDRVSITCKASQYVGTAVAWYQQKPGQSPKLLIYSASNRYTGVPDRFTDSGSGTDFTLTISNLQSEDLADYFCQQYSSYPWTFGGGTKLEIK
notes: murine monoclonal, isotype G1; also called murine Ab6
Baf3-mPRLR proliferation IC50 [1]: > 30 µg/mL | Kd [2]: 635 nM | koff [2]: 0.394 s⁻¹ | kon [2]: 622000 M⁻¹ s⁻¹ | Kd [3]: 0.807 nM | koff [3]: 0.00109 s⁻¹ | kon [3]: 1.36e+06 M⁻¹ s⁻¹ | Kd [4]: 0.45 nM | koff [4]: 0.000576 s⁻¹ | kon [4]: 1.28e+06 M⁻¹ s⁻¹

B9: chAb6 (antibody, human IgG1, kappa, V domains shown)
VH: B8 VH
VL: DIVMTQSQKFMSTTVGDRVSITCKASQYVGTAVAWYQQKPGQSPKLLIYSASNRYTGVPDRFTDSGSGTDFTLTISNLQSEDLADYFCQQYSSYPWTFGGGTKLEIKT
notes: chimeric, murine variable and human G1/kappa constant regions
solution mAb binding, % of PRLR binding [5]: -1% | solution mAb binding, % of PRLR binding [6]: -1% | Kd [2]: 608 nM | koff [2]: 0.36 s⁻¹ | kon [2]: 591000 M⁻¹ s⁻¹ | Kd [3]: 0.794 nM | koff [3]: 0.00103 s⁻¹ | kon [3]: 1.3e+06 M⁻¹ s⁻¹ | Kd [4]: 0.469 nM | koff [4]: 0.000536 s⁻¹ | kon [4]: 1.14e+06 M⁻¹ s⁻¹ | solution mAb binding, % of PRLR binding [7]: -1% | solution mAb binding, % of PRLR binding [8]: -1% | solution mAb binding, % of PRLR binding [9]: -2%
